Experimental data taken from patent US20250154271A1 (published 2025).

Tests used:
canine NGF = target: T1, canine NGF (canine, UniProt Q29074 110-229 (pig entry), limits assumed); experiment: SPR Biacore, NGF amine-coupled to chip
T1 construct: also called cNGF; canine β-NGF
T1 chain: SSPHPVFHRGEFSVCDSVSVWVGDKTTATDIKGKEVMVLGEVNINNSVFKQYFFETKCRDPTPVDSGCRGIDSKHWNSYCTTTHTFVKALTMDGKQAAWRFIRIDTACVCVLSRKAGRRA
Method: (§1) Antibody binding affinities of the antibodies against canine NGF were determined by surface plasmon resonance (SPR) on a Biacore system (Biocore Life Sciences (GE Healthcare), Uppsala, Sweden). Immobilization of canine and rat NGF were obtained by amine coupling 5 μg/mL NGF using N-hydroxysuccinimide (NHS)/1-Ethyl-3-(3-dimethylaminopropyl) carbodiimide (EDC) chemistry. Chips were quenched with ethanolamine and the affinity with which all candidate mAbs bound to the immobilized NGF was evaluated. Various concentrations of canine and felinized anti-NGF antibodies were injected over the NGF surfaces while the association of the antibody to the antigen and the dissociation of the formed complex were monitored in real time. Kinetic analysis was performed to obtain the equilibrium dissociation constant (KD).

rat NGF = target: T2, rat NGF (rat, UniProt P25427 122-241); experiment: SPR Biacore, NGF amine-coupled to chip
T2 construct: Immobilised on the Biacore chip by amine coupling; also called rN
T2 sequence (P25427 122-241 limits assumed): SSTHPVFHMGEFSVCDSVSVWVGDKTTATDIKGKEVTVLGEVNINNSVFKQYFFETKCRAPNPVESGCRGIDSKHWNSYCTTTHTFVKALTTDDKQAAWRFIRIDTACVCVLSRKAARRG
Method: as §1

B1: fel48L2 chimera (antibody, V domains shown)
VH: EVQLVESGGDLVKPGGSLRLSCVASGFTFSTYGINWVRQAPGKGLQWVAYISSGGSSTYYADPVKGRFTISRDDAKNMLYLQMNSLRAEDTAIYYCAGSRYTYAYGGGYEFHFWGQGTLVTVSS
VL: QAVLNQPASVSGALGQKVTISCSGSTMDIDIFGVSWYQQLPGKAPKLLVDSDGDRPSGIPDRFSGSRSGNSGTLTITGLQAEDEADYHCQSGDSTLGALAIFGGGTHVTVLG
notes: Canine variable domains on feline constant regions
In the case of B1, the Kd (canine NGF) is reported as 6.25 pM, the koff (canine NGF) is reported as 2.64e-06 s⁻¹ and the kon (canine NGF) is reported as 471000 M⁻¹ s⁻¹. For the same binder, the Kd (rat NGF) was 0.285 pM, the koff (rat NGF) was 1.1e-07 s⁻¹ and the kon (rat NGF) was 387000 M⁻¹ s⁻¹.
